Residue numbers refer to the chain shown, from its start. In names and notes the source's numbering stands.
T1: recombinant human RANKL (soluble, Gly136-Asp317, N-terminal 10 His, expressed in CHO cells) (human, UniProt O14788 136-317)
T1 construct: residues between secretion signal and His tag are not described; also called hRANKL; hRNAKL
T1 sequence: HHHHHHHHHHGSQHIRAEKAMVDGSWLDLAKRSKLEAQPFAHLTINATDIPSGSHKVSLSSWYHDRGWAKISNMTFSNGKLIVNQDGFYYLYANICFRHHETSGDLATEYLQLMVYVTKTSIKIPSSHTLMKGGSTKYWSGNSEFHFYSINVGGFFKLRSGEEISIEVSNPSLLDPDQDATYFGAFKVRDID

T2: mouse RANKL (R & D Systems) (mouse, UniProt O35235 158-316, limits assumed)
T2 construct: also called murine RANKL
T2 sequence (looked up): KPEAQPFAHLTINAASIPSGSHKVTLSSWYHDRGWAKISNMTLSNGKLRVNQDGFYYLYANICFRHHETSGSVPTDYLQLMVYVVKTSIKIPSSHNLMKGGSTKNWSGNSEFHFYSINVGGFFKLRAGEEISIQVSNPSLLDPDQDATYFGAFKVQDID

T3: monkey RANKL (cynomolgus monkey, R & D Systems) (cynomolgus monkey, UniProt A0A7N9DBU4 140-317)
T3 construct: also called cynomolgus monkey RANKL
T3 sequence: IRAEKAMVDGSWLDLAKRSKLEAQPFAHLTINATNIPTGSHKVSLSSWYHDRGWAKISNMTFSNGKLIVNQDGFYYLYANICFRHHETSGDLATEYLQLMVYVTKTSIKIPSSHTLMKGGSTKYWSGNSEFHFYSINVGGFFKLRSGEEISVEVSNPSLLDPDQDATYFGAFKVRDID

B1: G1 (antibody, human IgG2, kappa, V domains shown)
VH: QVQLQQSGAELASPGASVKLSCKASGYTFTTYWLQWVKQRPGQGLEWIGAIYPGPGNTKYTQKFKDKATLTADKSASTAYMQLNSLTSEDSAVYYCARRGSRRGIAYWGQGTLVTVSA
VL: NIVLTQSPASLAVSLGQRATISCRASESVDSYGRSFMHWYQQRPGQPPTLLIYLASNLESGVPVRFSGSGSRTDFTLTIDPVEADDAATYYCQQDNEDPYTFGGGTKLEIKG
notes: expressed in 293F cells; also called murine antibody G1; mouse antibody (G1)
B2: G2 (antibody, human IgG2, kappa, V domains shown)
VH: QVQLVQSGAELKKPGASVKLSCKASGYTFTTYWLQWVRQAPGQGLEWMGAIYPGPGNTKYTQKFKDRFTITADKSKSTAYMQLNSLKSEDSAVYYCARRGSRRGIAYWGQGTLVTVSA
VL: B1 VL with A12S, P47A, T49R, V64A, D80S, P81S, D85E, A87E
notes: 293F cells
B3: G5 (antibody, human IgG2, kappa, V domains shown)
VH: B2 VH
VL: B1 VL with A12S, R43K, P47A, T49K, V64S, D80S, P81R, D85E
notes: 293F cells
B4: G3 (antibody, human IgG2, kappa, V domains shown)
VH: B2 VH
VL: B1 VL with A12S, R43K, P47A, T49K, V64S, D80S, P81A, D85E
notes: 293F cells
B5: G7 (antibody, human IgG2, kappa, V domains shown)
VH: B2 VH with K12V, K13Q, A40T, F68V, K74T, K76T, K87R
VL: B1 VL with A12S, R43K, P47A, T49K, V64S, D80S, P81A, D85E
notes: 293F cells
B6: G4 (antibody, human IgG2, kappa, V domains shown)
VH: B2 VH
VL: B1 VL with A12S, P47A, T49K, V64A, D80S, P81S, D85E, A87E
notes: 293F cells
B7: G6 (antibody, human IgG2, kappa, V domains shown)
VH: B2 VH with K12V, K13Q, A40T, F68V, K74T, K76T, K87R
VL: B1 VL with A12S, P47A, T49R, V64A, D80S, P81S, D85E, A87E
notes: 293F cells
B8: 114-7.19.12 (antibody, V domains shown)
VH: B1 VH
VL: NIVLTQSPASLAVSLGQRATISCRASESVDSYGRSFMHWYQQRPGQPPTLLIYLASNLESGVPVRFSGSGSRTDFTLTIDPVEADDAATYYCQQDNEDPYTFGGGTKLEIK
notes: Murine monoclonal antibody purified from hybridoma supernatant
B9: 114-7.37.26 (antibody, V domains shown)
VH: B1 VH with A24T, N84S
VL: B8 VL with V64A
notes: Murine monoclonal antibody from hybridoma
B10: 114-5.7.14 (antibody, V domains shown)
VH: EVQLQQSGAELVKPGASVKLSCTASGFKIKDTYMHWVRQRPEQGLEWIGRIDSANGNIKYDPKFQGKATITADTSSKTAYLHLSSLTFEDTAVYYCSRPKSNYDFWLPYWGQGTLVTVSA
VL: DIQMTQTTSSLSASLGDRVTISCSASQGISNYLNWYQQKPDGTVKLLIYYTSSLHSGVPSRFSGSGSGTDYSLTISNLEPEDIATYYCQQYSKLPLTFGAGTKLELK
notes: as for B9
B11: 114-6.6.29 (antibody, V domains shown)
VH: DVKLVESGGGLVKPGGSLKLSCAASGFTFSSYTMSWVRQTPEKRLEWVATISSGGSYTYYPDSVKGRFTISRDNAKNTLYLQMSSLKSEDTAMYYCTRDWDYYGTTYVGGYAMDYWGQGTSVTVSS
VL: DVLMTQTPLSLPVSLGDQASISCRSSQSIVHSNGNTYLEWYLQKPGQSPKLLIYKVSNRFSGVPDRFSGSGSGTDFTLKISRVEAEDLGVYYCFQGSHVPWTFGGGTKLEIK
notes: as for B9
B12: 114-2.222 (antibody, V domains shown)
VH: EVQLQQSGAELVKPGASVKLSCTTSGFNIKATYIHWVQQRPEQGLEWIGRIDPANGNTKYDSKFQGKATITADTSSNTAYLQLSSLTSEDTAVYFCARSLHYYVFFDYWGQGTTLTVSS
VL: DIQMTQTTSSLSASLGDRVTISCSASQGISNYLNWYQQKPDGTVKLLIYSTSSLHSGVPSRFSGSGSGTDYSLTISSLEPEDIATYYCQQYSKLPLTFGAGTKLELKR
notes: as for B9
B13: 114-2.402 (antibody, V domains shown)
VH: EVQLQQSGTELVKPGASVKLSCTLFGFNIKATYMHWVRQRPEQGLEWIGRIDPPNGNTKYDPKFQDKATIKVDTSSNTAYLQLSSLTSEDTAVYYCAREFNRYDVWLAYWGQGTLVTVSA
VL: B12 VL with I29V, S77N, I83V, L96F, A100S, L106I
notes: as for B9
B14: 114-5.9.4 (antibody, V domains shown)
VH: EVQLQQSGAELVKPGASVKLSCTASGFNLKGTYIHWVKQRPGQGLEWIGRIDPANANTKYDPKFQGKATIRTDTSSNTAYLQLSSLTSEDTAVYFCSSPSGHYDVWFAYWGQGTLVTVSP
VL: B12 VL with T7P, R18T, G28D, V44L, S50Y, S77N, Y91F
notes: as for B9
B15: 114-7.38.48 (antibody, V domains shown)
VH: DVQLQESGPDLVKPSQSLSLTCTVTGYSITSAYSWHWIRQFPGNKLEWMGYIHFSGVTNYNPSLKSRISITRDASKNQFFLQLSSVTTEDTATYYCATRRETGFTYWGQGTLVTVSA
VL: DIVLTQSPATLSVTPGDSVSLSCRASQSISKNLHWYQQKSHESPRLLIKYASQSISGIPSRFSGSGSGTDFTLSINSVETEDFGIYFCQQINSWPLTFGAGTKLELK
notes: as for B9
B16: G12 (antibody, human IgG2, kappa, V domains shown)
VH: B2 VH with K74T
VL: B1 VL with A12S, P47A, T49K, V64A, D80S, P81S, D85E, A87E
notes: 293F cells
B17: G9 (antibody, human IgG2, kappa, V domains shown)
VH: B2 VH with K12V, K13Q, A40T, F68V, K74T, K76T, K87R
VL: B1 VL with A12S, R43K, P47A, T49K, V64S, D80S, P81R, D85E
notes: 293F cells
B18: G11 (antibody, human IgG2, kappa, V domains shown)
VH: B2 VH with K74T
VL: B1 VL with A12S, R43K, P47A, T49K, V64S, D80S, P81A, D85E
notes: 293F cells
B19: G13 (antibody, human IgG2, kappa, V domains shown)
VH: B2 VH with K74T
VL: B1 VL with A12S, R43K, P47A, T49K, V64S, D80S, P81R, D85E
notes: 293F cells

Molecular target: T1, recombinant human RANKL (soluble, …)
Experiment: ELISA, hRANKL coated 1 µg/ml; concentration at 50% Bmax; Plate#01

Binder	EC50
B1	0.00147 µg/mL
B2	0.00255 µg/mL
B3	0.00221 µg/mL
B4	0.00187 µg/mL
B5	0.00182 µg/mL
B6	0.00195 µg/mL
B7	0.00147 µg/mL

Molecular target: T2, mouse RANKL (R & D Systems)
Experiment: direct ELISA, mouse RANKL coated 1 µg/ml

Binder	binding result
B8	no binding
B9	no binding
B10	no binding
B11	no binding
B12	no binding
B13	no binding
B14	no binding
B15	no binding

Molecular target: T1, recombinant human RANKL (soluble, …)
Experiment: cell-based or functional assay

Binder	EC50 value (ng/ml), inhibition of RAW264.7 differentiation
B8	267 ng/mL
B9	470 ng/mL
B10	315 ng/mL
B11	799 ng/mL
B12	311 ng/mL
B13	396 ng/mL
B14	340 ng/mL
B15	585 ng/mL

Molecular target: T1, recombinant human RANKL (soluble, …)
Experiment: direct ELISA, human RANKL coated 1 µg/ml

Binder	EC50
B8	0.00993 µg/mL
B9	0.0159 µg/mL
B10	0.00623 µg/mL
B11	0.0117 µg/mL
B12	0.0137 µg/mL
B13	0.0112 µg/mL
B14	0.0118 µg/mL
B15	0.0185 µg/mL

Molecular target: T1, recombinant human RANKL (soluble, …)
Experiment: competitive ELISA, RANK-Fc coated, antibody pre-incubated with 0.25 µg/ml hRANKL; Plate#02

Binder	IC50
B16	0.36 µg/mL
B1	~0.35 µg/mL
B17	0.5 µg/mL
B18	0.19 µg/mL
B19	0.31 µg/mL

Molecular target: T1, recombinant human RANKL (soluble, …)
Experiment: cell-based or functional assay
Remark: another data set of the same source

Binder	IC50 (ng/ml) in RAW264.7 cells
B16	~1060 ng/mL
B6	~1080 ng/mL

Molecular target: T3, monkey RANKL (cynomolgus monkey, R & D …)
Experiment: direct ELISA, monkey RANKL coated

Binder	EC50
B8	0.0129 µg/mL
B9	0.016 µg/mL
B10	0.00686 µg/mL
B11	0.0104 µg/mL
B12	0.0153 µg/mL
B13	0.0111 µg/mL
B14	0.00967 µg/mL
B15	0.0198 µg/mL

Molecular target: T1, recombinant human RANKL (soluble, …)
Experiment: competitive ELISA, RANK-Fc coated, antibody mixed with human RANKL (0.6 µg/ml, equal volume)

Binder	EC50
B8	0.28 µg/mL
B9	0.29 µg/mL
B10	0.33 µg/mL
B11	0.39 µg/mL
B12	0.8 µg/mL
B13	0.93 µg/mL
B14	0.28 µg/mL
B15	0.93 µg/mL

Molecular target: T1, recombinant human RANKL (soluble, …)
Experiment: competitive ELISA, RANK-Fc coated, antibody pre-incubated with 0.25 µg/ml hRANKL; Plate#01

Binder	IC50
B1	0.18 µg/mL
B2	0.3 µg/mL
B3	0.29 µg/mL
B4	0.31 µg/mL
B5	0.29 µg/mL
B6	~0.36 µg/mL
B7	0.29 µg/mL

Molecular target: T1, recombinant human RANKL (soluble, …)
Experiment: ELISA, hRANKL coated 1 µg/ml; concentration at 50% Bmax; Plate#02

Binder	EC50
B16	0.00175 µg/mL
B1	0.00188 µg/mL
B17	0.00328 µg/mL
B18	0.0019 µg/mL
B19	0.00234 µg/mL
